Test results published in paper PMC3667858 (PLoS ONE, 2013).

B1: sdAb-C6 (VHH)
VHH: HVQLVESGGGSVQAGGSLRLSCTYSVYTYSSDSMAWFRQAPGKEREGVAGIYIGSGSTLYADSVKGRFTISQDKAKNTVYLQMNSLKPEDTALYYCAAGGNWYDGVLNVERAFAYWGQGTQVTVSS
notes: also called clone 6; sdAb-6
B2: Alexa Fluor-488-conjugated-sdAb-C6 (VHH)
VHH: B1 VHH
notes: also called AF488-C6; AF488-C6 probe
B3: QDs-C6 probe (VHH)
VHH: B1 VHH
notes: also called QD-sdAb probe; QDs-sdAb

What was measured:
[1] = target: T1, FMDV Asia 1 virus-like particles (VLPs) (Foot-and-mouth disease virus serotype …, UniProt A2I7M2); test: SPR; details: both partners purified
T1 construct: also called Asia 1 VLPs antigen; recombinant VLPs; copies: + +

[2] = target: T2, FMDV Asia 1 virions in infected BHK-21 cells (Foot-and-mouth disease virus serotype …, UniProt A2I7M2, strain); test: immunostaining of cells or tissue; details: one partner purified
T2 construct: also called FMD virions; FMD Asia 1 virions; copies: + + +

| Binder | Kd [1] [nM] | koff [1] [s⁻¹] | kon [1] [M⁻¹ s⁻¹] | binding result [2] |
| --- | --- | --- | --- | --- |
| B1 | 0.44 | 0.000703 | 1.6e+06 |  |
| B2 |  |  |  | binds |
| B3 |  |  |  | binds |
